Where “and” joins values, the source holds several entries; their conditions need not be identical. Equal entries are not always repeated. Blank lines part the entries; values can stand above or below the molecule they belong to.
Experiments:
[1] = target: PlxnA1_(1-10), full extracellular segment of mouse PlxnA1 (domains 1-10) (mouse) (UniProt P70206); experiment: AUC; sedimentation velocity, 40,000 rpm, absorbance at 280 nm, c(s) analysis; protein at 28.1 μM (4 mg/ml)
[2] = target: PlxnA2 extracellular-transmembrane segment fused to mTFP1 (donor) or mVenus (acceptor) (mouse); experiment: FRET or BRET; FRET-FLIM in live COS-7 cells co-expressing mTFP1- and mVenus-fused PlxnA2; before Sema6A stimulation
[3] = target: the molecule itself; experiment: crystal structure; crystals of full extracellular segments; intermolecular plexin-plexin interface in the crystal; 4 to 10 Å
[4] = target: T1, PlxnA2_(1-2), PlxnA2 sema-PSI1 domains (mouse, UniProt P70207 31-561); experiment: SPR; equilibrium experiments, Biacore T200, 25°C, 10 mM HEPES pH 7.5, 150 mM NaCl, 0.005% Tween 20; biotinylated PlxnA2_(4-5) (wild type or mutant) on streptavidin chip, PlxnA2_(1-2) as analyte; 1:1 Langmuir model; conditions: both partners purified
T1 construct: Plexin-A2, mouse, sema and PSI1 domains (domains 1-2)
T1 sequence: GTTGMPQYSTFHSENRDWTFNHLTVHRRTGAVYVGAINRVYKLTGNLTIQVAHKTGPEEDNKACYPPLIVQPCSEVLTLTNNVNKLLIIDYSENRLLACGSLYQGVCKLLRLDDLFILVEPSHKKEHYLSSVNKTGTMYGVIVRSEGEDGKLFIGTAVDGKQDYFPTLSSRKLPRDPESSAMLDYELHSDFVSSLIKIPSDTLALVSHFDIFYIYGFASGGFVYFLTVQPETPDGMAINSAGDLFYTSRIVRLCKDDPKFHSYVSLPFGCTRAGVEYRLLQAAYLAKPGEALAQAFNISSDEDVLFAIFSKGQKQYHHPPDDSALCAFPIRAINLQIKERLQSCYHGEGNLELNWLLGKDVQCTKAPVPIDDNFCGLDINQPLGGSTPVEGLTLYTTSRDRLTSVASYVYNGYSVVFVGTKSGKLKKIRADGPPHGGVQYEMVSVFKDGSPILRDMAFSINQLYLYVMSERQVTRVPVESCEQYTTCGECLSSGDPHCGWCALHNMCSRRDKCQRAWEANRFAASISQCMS

stoichiometry N [1]: 2 and 3 and 4
Molecule: PlxnA1_(1-10), full extracellular segment of mouse PlxnA1 (domains 1-10) (from UniProt P70206 28-1242) (domain or fragment)

average fraction of interacting donor (fD) [2]: 0.11
Molecule: PlxnA2 extracellular-transmembrane segment fused to mTFP1 (donor) or mVenus (acceptor) (receptor)

B1: PlxnA4_(1-10), full extracellular segment of mouse PlxnA4 (domain or fragment, UniProt Q80UG2 24-1236, looked up)
chain: TLLPRQPPQLSQKPSFVTFRGEPAEGFNHLVVDERTGHIYLGAVNRIYKLSSDLKVLVTHQTGPDEDNPKCYPPRIVQTCNEPLASTNNVNKMLLIDYKENRLIACGSLYQGICKLLRLEDLFKLGEPFHKKEHYLSGVNESGSVFGVIVSYSNFDDKLFIATAVDGKPEYFPTISSRKLTKNSEADGMFAYVFHDEFVASMIKIPSDTFTVIPDFDIYYVYGFSSGNFVYFLTLQPEMVSPPGSTTKEQVYTSKLVRLCKEDTAFNSYVEVPIGCERNGVEYRLLQAAYLSKAGAVLGRTLGVRPDDDLLFTVFSKGQKRKMKSLDESALCIFILKQINDRIKDRLQSCYRGEGTLDLAWLKVKDIPCSSALLTIDDNFCGLDMNAPLGVSEMVRGIPVFTEDRDRMTSVIAYVYKNHSLAFVGTKSGKLKKIRVDGPKGNALQYETVQVVDSGPVLRDMAFSKDHEQLYIMSERQLTRVPVESCGQYRSCGECLGSGDPHCGWCVLHNTCTRKERCERSREPRRFASEMKQCVRLTVHPNNISVSQYNVLLVLETYNVPELSAGVNCTFEDLSEMDGLVIGNQIQCYSPAAKEVPRIITENGDHHVVQLQLKSKETGMTFASTSFVFYNCSVHNSCLSCVESPYRCHWCKYRHVCTHDPNTCSFQEGRVKLPEDCPQLLRVDKILVPVEVIKPITLKAKNLPQPQSGQRGYECILNIQGIEQRVPALRFNSSSVQCQNTSYSYEGMEINNLPVELTVVWNGHFNIDNPAQNKVYLYKCGAMRESCGLCLKADPDFECGWCQSPGQCTLRQHCPAHESRWLELSGANSKCTNPRITEIIPVTGPREGGTKVTIRGENLGLEFRDIASHVKVAGVECSPLVDGYIPAEQIVCEMGEAKPSQHAGFVEICVAVCRPEFMARSSQLYYFMTLTLADLKPNRGPMSGGTQVTITGTNLNAGSNVVVMFGSQPCLFHRRSPSYIICNTTSSEEVLDMKVTVQVDRARIRQDLVFQYVEDPTIVRIEPEWSIVSGNTPIAVWGTHLDLIQNPQIRAKHGGKEHINICEVLNATEMTCQAPALALGPDHQSDLTERPEEFGFILDNVQSLLILNKTNFTYYPNPVFEAFSPSGILELKPGTPIILKGKNLIPPVAGGNVKLNYTVLVGEKPCTVTVSDVQLLCESPNLIGRHKVMARVGGMEYSPGMVYIAPDSPLSLP
notes: Plexin-A4, mouse, full extracellular segment (domains 1-10); also called PlxnA4 full ectodomain
binding result [3]: binds

B2: PlxnA2_(1-10), full extracellular segment of mouse PlxnA2 (domain or fragment, UniProt P70207 35-1237, looked up)
chain: MPQYSTFHSENRDWTFNHLTVHRRTGAVYVGAINRVYKLTGNLTIQVAHKTGPEEDNKACYPPLIVQPCSEVLTLTNNVNKLLIIDYSENRLLACGSLYQGVCKLLRLDDLFILVEPSHKKEHYLSSVNKTGTMYGVIVRSEGEDGKLFIGTAVDGKQDYFPTLSSRKLPRDPESSAMLDYELHSDFVSSLIKIPSDTLALVSHFDIFYIYGFASGGFVYFLTVQPETPDGMAINSAGDLFYTSRIVRLCKDDPKFHSYVSLPFGCTRAGVEYRLLQAAYLAKPGEALAQAFNISSDEDVLFAIFSKGQKQYHHPPDDSALCAFPIRAINLQIKERLQSCYHGEGNLELNWLLGKDVQCTKAPVPIDDNFCGLDINQPLGGSTPVEGLTLYTTSRDRLTSVASYVYNGYSVVFVGTKSGKLKKIRADGPPHGGVQYEMVSVFKDGSPILRDMAFSINQLYLYVMSERQVTRVPVESCEQYTTCGECLSSGDPHCGWCALHNMCSRRDKCQRAWEANRFAASISQCMSLEVHPNSISVSDHSRLLSLVVNDAPNLSEGIACAFGNLTEVEGQVSGSQVICISPGPKDVPVIPLDQDWFGLELQLRSKETGKIFVSTEFKFYNCSAHQLCLSCVNSAFRCHWCKYRNLCTHDPTTCSFQEGRINVSEDCPQLVPTEEILIPVGEVKPITLKARNLPQPQSGQRGYECVLSIQGAVHRVPALRFNSSSVQCQNSSYQYDGMDISNLAVDFAVVWNGNFIIDNPQDLKVHLYKCAAQRESCGLCLKADHKFECGWCSGERRCTLHQHCPSTSSPWLDWSSHNVKCSNPQITEILTVSGPPEGGTRVTIHGVNLGLDFSEIAHHVQVAGVPCTPIPGEYIIAEQIVCEMGHAVIGTTSGPVRLCIGECKPEFMTKSHQQYTFVNPSVLSLSPIRGPESGGTMVTITGHYLGAGSSVAVYLGNQTCEFYGRSMNEIVCVSPPSSNGLGPVPVSVSVDRARVDSSLQFEYIDDPRVQRIEPEWSITSGHTPLTITGFNLDVIQEPRVRVKFNGKESVNVCTVVNTTTLTCLAPSLTSDYRPGLDTVERPDEFGFLFNNVQSLLIYNDTKFIYYPNPTFELLSPTGILDQKPGSPIILKGKNLCPPASGGAKLNYTVMIGETPCTVTVSETQLLCEPPNLTGQHKVMVHVGGMVFSPGSVSVISDSLLTLP
notes: Plexin-A2, mouse, full extracellular segment (domains 1-10); also called PlxnA2 full ectodomain
binding result [3]: binds

Kd [4]: 20.9 ± 0.38 µM
B3: PlxnA2_(4-5), PlxnA2 PSI2-IPT2 domains (domain or fragment, mouse)
chain: NCSAHQLCLSCVNSAFRCHWCKYRNLCTHDPTTCSFQEGRINVSEDCPQLVPTEEILIPVGEVKPITLKARNLPQPQSGQRGYECVLSIQGAVHRVPALRFNSSSVQCQNSSYQYDGMDISNLAVDFAVVWNGNFIIDNPQDLKVHLYK
modifications: enzymatically biotinylated with BirA via an engineered C-terminal tag
notes: Plexin-A2, mouse, PSI2 and IPT2 domains (domains 4-5); The crystallised PlxnA2_(4-5) (PDB 5L74) was made in HEK293S cells; also called wild-type PlxnA2_(4-5); not shown: biotinylation tag (BirA), C-terminal, kept

Source: PMC4980550, “Structural Basis for Plexin Activation and Regulation” (Neuron, 2016)
